The Kd is the concentration at which binding is half-saturated.

What all share (experiment): SPR Biacore, biotinylated receptor on SA sensor, pH 7.4, 15 C
For experiment [1], the target named is T1, CTLA4 Fc bIgG3aWin (canine; bovine, UniProt Q9XSI1 36-161, limits assumed).
T1 construct: No linker
T1 sequence: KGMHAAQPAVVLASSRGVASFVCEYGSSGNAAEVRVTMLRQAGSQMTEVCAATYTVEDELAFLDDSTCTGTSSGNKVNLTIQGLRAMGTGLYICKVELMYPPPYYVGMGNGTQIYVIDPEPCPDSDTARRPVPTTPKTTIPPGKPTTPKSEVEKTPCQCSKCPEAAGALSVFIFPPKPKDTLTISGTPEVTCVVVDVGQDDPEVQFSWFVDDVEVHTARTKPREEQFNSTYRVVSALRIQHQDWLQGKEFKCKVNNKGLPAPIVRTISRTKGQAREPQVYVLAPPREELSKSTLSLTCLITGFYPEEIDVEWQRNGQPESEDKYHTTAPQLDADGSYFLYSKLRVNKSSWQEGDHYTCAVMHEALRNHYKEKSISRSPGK
The procedure:
(§1) A Biacore SPR binding assay was designed to test the affinity of bovine IgG subclasses to bFcgR1, bFcgR2 and bFcgR3. All reported KD's were measured by Biacore (Cytiva, Marlborough, MA, USA) using series S SA sensor. Biotinylated-bovine FcgR1, R2 and R3 were captured on the sensor surface using a modified SA capture method to reach the desired surface density. 10 mM HEPES, 150 mM NaCl, 3 mM EDTA, 0.05% v/v surfactant P20, pH7.4 buffer was used as the running and titration buffer. Various concentrations of bovine CTLA4-Fc fusions or mAbs were titrated and flowed over the receptor surface and affinities were determined using Biacore T200 Evaluation software (Cytiva, Marlborough, MA, USA) with 1:1 binding model. The method of double referencing has been applied where the reference flow cell was subtracted from the flow cell containing immobilized receptors and blank runs containing buffer only were subtracted out from all runs. Flow cells were regenerated using 10 mM Glycine pH1.5. Runs were performed at 15° C.
(§2) Biacore methods for bFcgR1, R2, and R3 were performed as described in Examples above. […] Although the two allotypes have different KDs for bFcgR2 and bFcgR3, both wildtype allotypes do bind. All of the mutations, bIgG3Win, bIgG3WinSAS, bIgG3SAS and bIgG3SAP for both the a and b allotypes knocked down binding to bFcgR1, bFcgR2 and bFcgR3 to negligible affinities. Thus, for knocking out receptor binding, the two allotypes compare similarly.

Experiment [2] has as its target T2, CTLA4 Fc bIgG3aSAP (canine; bovine, UniProt Q9XSI1 36-161, limits assumed).
T2 construct: No linker
T2 sequence: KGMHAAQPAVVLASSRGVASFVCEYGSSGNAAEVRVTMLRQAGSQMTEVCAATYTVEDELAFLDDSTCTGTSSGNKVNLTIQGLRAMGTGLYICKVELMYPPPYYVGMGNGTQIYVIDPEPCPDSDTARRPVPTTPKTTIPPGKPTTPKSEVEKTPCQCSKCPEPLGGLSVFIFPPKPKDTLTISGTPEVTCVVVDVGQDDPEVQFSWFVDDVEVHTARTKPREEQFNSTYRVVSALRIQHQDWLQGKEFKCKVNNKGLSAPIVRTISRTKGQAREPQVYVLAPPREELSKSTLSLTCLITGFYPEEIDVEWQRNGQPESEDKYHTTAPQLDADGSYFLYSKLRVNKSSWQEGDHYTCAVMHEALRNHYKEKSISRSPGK
The procedure:
as §1, §2

The target of experiment [3] is T3, CTLA4 Fc bIgG3a (canine; bovine, UniProt Q9XSI1 36-161, limits assumed).
T3 construct: No linker; also called bIgG3a wildtype; CTLA4 Fc bIgG3a wildtype
T3 sequence: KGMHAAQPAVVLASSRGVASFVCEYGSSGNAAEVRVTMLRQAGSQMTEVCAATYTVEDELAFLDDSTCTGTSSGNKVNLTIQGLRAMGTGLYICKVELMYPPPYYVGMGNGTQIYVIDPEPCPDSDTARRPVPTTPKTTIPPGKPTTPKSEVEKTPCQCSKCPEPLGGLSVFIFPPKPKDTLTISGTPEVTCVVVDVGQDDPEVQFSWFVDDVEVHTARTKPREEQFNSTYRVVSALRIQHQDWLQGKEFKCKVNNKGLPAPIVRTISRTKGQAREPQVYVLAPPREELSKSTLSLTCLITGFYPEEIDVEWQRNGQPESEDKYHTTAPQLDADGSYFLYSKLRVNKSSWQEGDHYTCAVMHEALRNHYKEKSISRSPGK
The procedure:
as §1, §2

Experiment [4] has as its target T4, CTLA4 Fc bIgG3aWinSAS (canine; bovine, UniProt Q9XSI1 36-161, limits assumed).
T4 construct: No linker
T4 sequence: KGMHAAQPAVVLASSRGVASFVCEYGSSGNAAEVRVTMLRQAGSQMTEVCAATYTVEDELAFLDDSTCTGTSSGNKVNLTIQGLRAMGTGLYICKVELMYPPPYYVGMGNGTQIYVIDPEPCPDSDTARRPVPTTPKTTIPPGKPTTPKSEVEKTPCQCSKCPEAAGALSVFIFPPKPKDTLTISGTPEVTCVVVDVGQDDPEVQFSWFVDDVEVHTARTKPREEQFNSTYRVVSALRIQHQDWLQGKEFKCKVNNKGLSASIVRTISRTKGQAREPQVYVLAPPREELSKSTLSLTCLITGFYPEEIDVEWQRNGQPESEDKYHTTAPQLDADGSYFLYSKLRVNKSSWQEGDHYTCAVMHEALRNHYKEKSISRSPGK
The procedure: as §1, §2

The target of experiment [5] is T5, CTLA4 Fc bIgG1aWinSS (canine; bovine, UniProt Q9XSI1 36-161, limits assumed).
T5 construct: No linker
T5 sequence: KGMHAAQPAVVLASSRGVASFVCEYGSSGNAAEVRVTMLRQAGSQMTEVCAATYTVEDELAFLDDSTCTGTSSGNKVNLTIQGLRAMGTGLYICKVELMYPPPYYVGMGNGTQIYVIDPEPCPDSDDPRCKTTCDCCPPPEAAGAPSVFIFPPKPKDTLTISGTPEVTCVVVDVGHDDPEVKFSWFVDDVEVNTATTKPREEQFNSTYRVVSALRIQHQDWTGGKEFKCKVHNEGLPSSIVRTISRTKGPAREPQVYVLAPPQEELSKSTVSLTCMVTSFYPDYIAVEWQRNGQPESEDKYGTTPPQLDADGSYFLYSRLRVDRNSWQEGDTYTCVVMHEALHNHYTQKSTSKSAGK
The procedure: as §1
The ability to knock out binding to bovine Fc gamma receptors was evaluated by comparing SPR Biacore bFcgR affinity of bIgG1a and bIgG1b wildtype Fc to the bIgG1a and bIgG1b mutations, described above. All mutations made to bIgG1 are identical for the a and b allotypes. Biacore methods for bFcgR1, R2, and R3 were performed as described in Example 1.

B1: recombinant bovine FcgR2 (receptor)
chain: KPDLPKAVVTIQPAWINVLREDHVTLTCQGTSFSAGNLTTWFHNGSSIHTQKQPSYSFRAGSNDSGSYRCQREQTSLSDPVHLDVISDWLLLQTPSLVFQEGEPIMLRCHSWRNQPLNKITFYQDRKSKIFSYQRTNFSIPRANLSHSGQYHCTAFIGKMLHSSQPVNITVQESSSSGPSSMTHHHHHHAGLNDIFEAQKIEWHE
modifications: biotin on the BAP tag (BirA)
notes: also called bFcgR2; bFcgRII
B1: the binding result in experiment [1], in experiment [2] and in experiment [4] was “no binding” throughout. In addition, the Kd in experiment [3] was 68.9 nM; in experiment [5], 52.5 nM.

B2: recombinant bovine FcgR3 (receptor)
chain: DTQTADPSKAVVLLDPQWNHVLTNDRVTLKCQGDYPVEDNSTKWWHNGTLISSQTPSYFIADVKVQDSGEYKCQTGLSAPSDPVKLEVHVGWLLLQVAQRVVNVGKPIRLKCHSWKKTPVAKVQYFRNGRGKKYSHGNSDFHIPEAKLEHSGSYFCRGIIGSKNESSESVQITVQAPETLQTVSSFFLPWHQHHHHHHAGLNDIFEAQKIEWHE
modifications: biotin on the BAP tag (BirA)
notes: also called bFcgR3; bFcgRIII
For B2, in experiment [1], the binding result is “no binding”. Further, the affinity in experiment [3], expressed as Kd, was 7170 nM.

Source of the values: patent US20230416410A1 (ZOETIS SERVICES, published 2023).
